Experimental data taken from article PMC10090020.

Molecular target: mCherry-CARACB(G15V) (barley (Hordeum vulgare))
Assay: FRET or BRET; FLIM-FRET in barley epidermal cells transiently co-expressing meGFP-RIC157 (donor) and mCherry-RACB forms (acceptor) after particle bombardment; meGFP lifetime measured at the equatorial plane; at least 10 cells per interaction in two replicates

## meGFP-RIC157 (natural protein)
  meGFP fluorescence lifetime: 2.2 ns
